From the supplement of paper PMC9170038

Test system: MS2 coat protein
Assay: apparent KD of MS2 coat protein; designed switch direction (-1 OFF switch, 1 ON switch): -1; higher = weaker reporter binding
How it was run: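 For each design, the apparent KD is the median over clusters of curves fitted to normalised cluster fluorescence. Clusters held RNA switches with common flanks, transcribed on Illumina chips by stalled E. coli RNA polymerase. These were titrated with SNAP-549-labelled MS2 coat protein, doubling from 0.7 or 1.5 nM to 3 µM, without input, with 200 uM small-molecule ligand, or with an oligonucleotide input.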

[1] = input ligand: microRNA oligo, concentration not stated
[2] = Eterna round: R95, input ligand: microRNA oligo, concentration not stated
[3] = Eterna round: R95, input ligand: FMN 200 uM
[4] = Eterna round: R95, input ligand: none

Sequence | apparent KD of MS2 coat protein (input ligand: FMN 200 uM) [nM] | apparent KD of MS2 coat protein [1] [nM] | apparent KD of MS2 coat protein (input ligand: none) [nM] | apparent KD of MS2 coat protein [2] [nM] | apparent KD of MS2 coat protein [3] [nM] | apparent KD of MS2 coat protein [4] [nM]
UUUUUAUAUGAAGGAUAUACUUAACAUGAGGAUCACCCAUGUGGUGUUGUGAGUGAGUGAGUUUAGUAGAAGGUCAAGUAUUUC [JMF's solution 43] (Eterna round: R96, puzzle: Exclusion NG 2) | 752 | 329 | 731 |  |  | 
UACAUGAGGAUCACCCAUGUUUUGUCGUGUAUGGUAUUUAUCUAGGAUAUCAAGUUAGUUAUUUAUGAGAAGGAGAAUAUUAAU [JMF's solution 29] (Eterna round: R96, puzzle: Exclusion NG 3) | 42.5 | 30.7 | 39.4 |  |  | 
CUUCACGGAGGAUAUGCGGGCUGCGACAUGAGGAUCACCCAUGUUUAUGGAGCUUGGCAUGCAGAAGGCCGGGAGC [Eternabot (L2) Solution 19] (Eterna round: R97, puzzle: Exclusion 5) | 9.81 |  | 10.6 |  |  | 
CAGUACUGAGGAUAUACAUGAGGAUCACCCAUGUGUUCCGGCUAGGAUACUAGCAAAGGAAGAAGGCAGUACUG [Mat - Exclusion 3 - Eli Mod - D23] (Eterna round: R97, puzzle: Exclusion 3) | 22.7 |  | 17.1 |  |  | 
UUUUUACAUGAGGAUCACCCAUGUCAGGAUAUCAUUAUAUUUUAUUAUUUUAUUUAUAUGAGAAGGGACUAUUA [My solution] (puzzle: Exclusion 1) |  |  |  | 93.8 |  | 
ACUAAGGUAGGAUAUACGUGCGUGAUCGUGCCUUAGCUGGCACAUGAGGAUCACCCAUGUAGAAGGGCCAGACA [Esraleon] (Eterna round: R97, puzzle: Exclusion 2) | 17.4 |  | 19.8 |  |  | 
AGUACUAACACGUGUGUGUUAGUACAAUAAGCUUGUGAAACAUGAGGAUCACCCAUGUCCUCAUAAGCUCGUCUUAU [salish99_TOv2_r3_074] (Eterna round: R96, puzzle: Sensor v3, turn-off variant 2) | 14.9 | 514 | 17.1 |  |  | 
CUUAGACAUGAGGAUCACCCAUGUGAGGAUAUGAAAUUAAUUAAUUAUGAAGUAUGAAUCAGAAGGCACAUAUG [Mat - Mod of Hyphema D35] (puzzle: Exclusion 1) |  |  |  | 78.6 | 71.7 | 118
AUGGGUCCUCUCGGAGCGACAUGAGGAUCACCCAUGUGUGUUGAGGAUAUCCACUGCUAAGGACGGGAGAAGGCAGUGUACUGU [Ex NG3 #85] (Eterna round: R96, puzzle: Exclusion NG 3) | 29.8 | 23.5 | 32.9 |  |  | 
CUUUUGUGAGGAUAUCAGUAGUAAUACAAUAGUAUUACUACUGAGAAGGCACAUGAGGAUCACCCAUGUUCCUC [Ex4 344 Omei mod 0] (puzzle: Exclusion 4) |  |  |  | 40.5 |  | 
AAGUAUAGAGGAUAUAGUAGGUACUACAUGAGGAUCACCCAUGUUCUUCAUUACGUAUUUCUAGAAGGCUGAUAAA [EX-5 Malc#26] (puzzle: Exclusion 5) |  |  |  | 174 | 484 | 268
AUAUAGCGAGGAUAUACAUGAGGAUCACCCAUGUAAUAAAUAUAUAUAUUUAUAUUAUGUAGAAGGCGCUAUAU [-18.5, -17.2 kcal, 39% A] (Eterna round: R97, puzzle: Exclusion 3) | 30.3 |  | 14.5 |  |  | 
AAGAGGUCAGGAUAUACGGAGAGAGGGAGUUGGUGAGGGUAACAUGAGGAUCACCCAUGUAGAAGGGACUAAGA [JR_Exclu2_Sub078] (puzzle: Exclusion 2) |  |  |  | 22.4 |  | 
AUGUGGGUACGAAGGUGUAGAUUGAGCGUACGUUCUGGAACAUGAGGAUCACCCAUGUCGCUUUUUGCUCGUCUUAU [JR_SV3TOV2_Sub035] (puzzle: Sensor v3, turn-off variant 2) |  |  |  | 47.8 | 25.1 | 24.1
CUGGUCCGAGGAUAUAUUAAGUGAUACAUGAGGAUCACCCAUGUUAUUUGAUGGAUGUAAAUAGAAGGCGGACUAG [JL-ex5-3.17] (puzzle: Exclusion 5) |  |  |  | 38.9 | 37.1 | 45.2
CAGUACUGAGGAUAUACAUGAGGAUCACCCAUGUGUCUAAGGUAGGAUACUACCAUUAGUAGAAGGCAGUACUG [Fiskers Ex 3 828 mod 19] (puzzle: Exclusion 3) |  |  |  | 13.2 |  | 
ACAGCUAAUCUGCUCGUCUACAUGAGGAUCACCCAUGUCAUGGUCCACCUAAGAGUCAGUUACCCAAGUGAUAUUCG [Eternabot (L1) Solution 29] (Eterna round: R97, puzzle: Sensor, turn-off variant 1) | 204 |  | 224 |  |  | 
GAUUAAUUAAUUAAUUAAUACAUGAGGAUCACCCAUGUAAUUUAAGAUCCUUAUACAAGCUUUGAUCUCGUCUUAUA [Stov1/5-A2] (Eterna round: R97, puzzle: Sensor, turn-off variant 1) | 163 |  | 159 |  |  | 

Sequence | apparent KD of MS2 coat protein (input ligand: FMN 200 uM) [nM] | apparent KD of MS2 coat protein [1] [nM] | apparent KD of MS2 coat protein (input ligand: none) [nM] | apparent KD of MS2 coat protein [2] [nM] | apparent KD of MS2 coat protein [3] [nM] | apparent KD of MS2 coat protein [4] [nM]
CUUUAGUGAGGAUAUCAGUGGUAAUACAAUAGUAUUACUACUGAGAAGGCACAUGAGGAUCACCCAUGUUCCUC [Mat - Exclusion 4 - Mod of Omei - D84] (puzzle: Exclusion 4) |  |  |  | 26.4 |  | 
UUGAAGUAAGGAUAUACAUGAGGAUCACCCAUGUAAAGGAAAGUAAUGGGAGUAGGAAGUAGAAGGUACGAGGA [JR_Exclu3_Sub062] (puzzle: Exclusion 3) |  |  |  | 66.6 | 49 | 134
UCUGGUCGAGGAUAUACAUGAGGAUCACCCAUGUAGAUCAACCAGCGAUAGCUGGAAUGUAGAAGGCGACCAGA [E3/5-A3] (Eterna round: R97, puzzle: Exclusion 3) | 381 |  | 30.4 |  |  | 
GCUCUGCGAGGAUAUACAUGAGGAUCACCCAUGUGCGAGUUACUUGUGAGGUCGGUUGGUAGAAGGCGCGGAGG [Mat - Exclusion 3 - Mod of JL D100] (puzzle: Exclusion 3) |  |  |  | 77.5 |  | 
GGGCCCGGUGUGAGGAUAUGAGUUCGGAAAUGAGCUUAGAAGGCACAUGAGGAUCACCCAUGUAAGCCGGGCCC [-34.2, -32.1 kcal, A 26%, 1-0] (Eterna round: R97, puzzle: Brourd's mod of Exclusion 4) | 14.3 |  | 35.6 |  |  | 
UAGACCGAUGUUAGGAUAUCUGGUCGAGAAAGAAAAGAGAAGGAACAUGAGGAUCACCCAUGUACCCGGGUAAC [Laisbebi] (puzzle: Brourd's mod of Exclusion 4) |  |  |  | 16.7 |  | 
GGUGCGUUUGUGAGGAUAUGCUGGUCCUUGGAUCAGCAGAAGGCACAUGAGGAUCACCCAUGUGGUGUCGUACC [salish99_Bmod_Ex4_030] (puzzle: Brourd's mod of Exclusion 4) |  |  |  | 273 |  | 
CUUAAUUGUCAGAUGGGUGACAUGAGGAUCACCCAUGUCACAAGCUUUUUGCUCGUCUUAUAAUUAACCCAUCUGAC [Stov1/11-A4] (Eterna round: R97, puzzle: Sensor, turn-off variant 1) | 13.5 |  | 13.4 |  |  | 
CUAGUCCGAGGAUAUAUUAAGUGAUACAUGAGGAUCACCCAUGUUAUUUAAUGGAUAUUAAUAGAAGGCGGACUAG [Mat - Exclusion 5 - JL mod - D78] (puzzle: Exclusion 5) |  |  |  | 32.1 | 42.6 | 31.3
AUUAUAACAUAGGAUAUCGAAUUUAUCAUUUAACGAGAAGGAUGAACAUGAGGAUCACCCAUGUGGUAUCAUGG [Mat - Exclusion 6 - JL Mod - D3] (puzzle: Exclusion 6) |  |  |  | 173 | 55 | 33.5
AAUUAGCAAGCGAGAUCUCACAUGAGGAUCACCCAUGUGCUCGUCUUAUAAGGUACUGUGACGAAAGUCACGGUACC [Mat - Sensor, turn-off var - Eli Mod - D40] (Eterna round: R97, puzzle: Sensor, turn-off variant 1) | 14.8 |  | 15.8 |  |  | 
CCCAGUUAUUGAGGAUAUCCUACAUGAGGAUCACCCAUGUAAUAAAUGAGGAUUUCGGGUGUCUAGGAGAAGGCAAGGAUAGGC [Ostracism 22 - Jieux - Exclusion NG 2] (Eterna round: R96, puzzle: Exclusion NG 2) | 63.7 | 39.8 | 50.5 |  |  | 
ACUGGAGCAGGAUAUAUAUGACGUGCUUCGGCACGAAGGUCACAUGAGGAUCACCCAUGUAGAAGGGCUCCAGU [E2/9-D1] (Eterna round: R97, puzzle: Exclusion 2) | 225 |  | 46.7 |  |  | 
CAUACUAAAGUCAGGAUAUGCGGUCGAAUACGGGUGUAGAAGGGACAUGAGGAUCACCCAUGUAGAUAGUAAAG [EX-4 Malc #18] (puzzle: Brourd's mod of Exclusion 4) |  |  |  | 90.2 | 93.1 | 129
AAAAAACAUGAGGAUCACCCAUGUAAGGAUAUCUAAAAUAAAAGAAAAAUAAAGAAAAGGAGAAGGUACAAGGA [JL wbt mod 25] (Eterna round: R96, puzzle: Exclusion 1) | 32.5 | 23.4 | 29.8 |  |  | 
CUACAUCGAGGAUAUGCAAACGUAAACAUGAGGAUCACCCAUGUGACGUCAUAUUACGUAGUAGAAGGCGAAAAUA [Anlein] (Eterna round: R97, puzzle: Exclusion 5) | 20.2 |  | 15.8 |  |  | 
CUGAGCUGAGGAUAUACAUGAGGAUCACCCAUGUGUUCGAGCUUGCGUACAGGCAGAUGUAGAAGGCAGUUCGG [JL-ex3-3.34 Brourd mod] (puzzle: Exclusion 3) |  |  |  | 23.8 |  | 
